Test results from paper PMC8058080.

Target: Acaryochloris marina photosystem I (PSI) monomer, 11 subunits (PsaA, PsaB, PsaC, PsaD, PsaE, PsaF, PsaJ, PsaK, PsaL, PsaM, Psa27) (Acaryochloris marina) (UniProt B0C474)
Test: cryo-EM structure; PSI trimer purified from A. marina; 50 mM MES-NaOH pH 6.5, 5 mM CaCl2, 10 mM MgCl2, 0.002% LMNG; 2.58 Å with C3 symmetrization, 2.97 Å without

stoichiometry N: 3
Substance: Acaryochloris marina photosystem I (PSI) monomer, 11 subunits (PsaA, PsaB, PsaC, PsaD, PsaE, PsaF, PsaJ, PsaK, PsaL, PsaM, Psa27) (from UniProt B0C474 1-753; B0C475 1-736; B0CB42 1-81; B0C8F1 1-139; B0C5D5 1-89; B0C7S7 1-167; B0C7S6 1-51; B0C7S4 1-153; B0C4H4 1-31) (complex)
